Experimental data reported in the supplement of paper PMC9112550, “Optimization of the antimicrobial peptide Bac7 by deep mutational scanning” (BMC Biology, 2022).

tested on: Escherichia coli TOP10; test: shrunken log2 fold change of peptide-encoding DNA abundance (4.5 h post-induction vs induction); higher = less antimicrobial activity (less host growth inhibition); details: time post-induction: 4.5 h; library: site-saturation at positions 5, 18, 19, 20
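Further: peptides expressed intracellularly from a pBAD plasmid library in pooled LB shake-flask culture, induced with 0.3% L-arabinose, DNA abundance read by NGS, three biological replicates, DESeq2 with apeglm shrinkage.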

Point of comparison: RRIRQRPPRLPRPRPRPNSYPRP, “shrunken log2 fold change” value -0.225. Against it:
- RRIRMRPPRLPRPRPRPLKNPRP — within 0.2 log units, -0.0484
- RRIRYRPPRLPRPRPRPMCNPRP — lower, -1.82
- RRIRNRPPRLPRPRPRPMFKPRP — within 0.2 log units, -0.386
- RRIRNRPPRLPRPRPRPHFYPRP — lower, -0.816
- RRIRKRPPRLPRPRPRPMTCPRP — higher, 0.0478
- RRIRRRPPRLPRPRPRPQLIPRP — within 0.2 log units, -0.0726
- RRIRVRPPRLPRPRPRPDTTPRP — lower, -1.05
- RRIRARPPRLPRPRPRPAVKPRP — higher, 0.233
- RRIRNRPPRLPRPRPRPCIYPRP — lower, -0.599
- RRIRIRPPRLPRPRPRPVACPRP — within 0.2 log units, -0.154
- RRIRRRPPRLPRPRPRPDTQPRP — higher, 0.162
- RRIRRRPPRLPRPRPRPISNPRP — within 0.2 log units, -0.269
- RRIRIRPPRLPRPRPRPATSPRP — within 0.2 log units, -0.273
- RRIRARPPRLPRPRPRPWYWPRP — higher, 0.0283
- RRIRKRPPRLPRPRPRPWGIPRP — within 0.2 log units, -0.168
- RRIRPRPPRLPRPRPRPWCLPRP — lower, -0.514
- RRIRQRPPRLPRPRPRPVQFPRP — within 0.2 log units, -0.0919
- RRIRTRPPRLPRPRPRPFQMPRP — within 0.2 log units, -0.135
- RRIRNRPPRLPRPRPRPWRDPRP — within 0.2 log units, -0.342
- RRIRHRPPRLPRPRPRPAMGPRP — within 0.2 log units, -0.336
- RRIRPRPPRLPRPRPRPCKDPRP — within 0.2 log units, -0.374
- RRIRNRPPRLPRPRPRPHTVPRP — within 0.2 log units, -0.118
- RRIRCRPPRLPRPRPRPHRVPRP — higher, 0.135
- RRIRHRPPRLPRPRPRPLLAPRP — higher, 0.299
- RRIRLRPPRLPRPRPRPQYHPRP — lower, -0.895
- RRIRLRPPRLPRPRPRPMWAPRP — higher, 0.0661
- RRIRERPPRLPRPRPRPCIWPRP — within 0.2 log units, -0.0915
- RRIRYRPPRLPRPRPRPCLSPRP — lower, -1.24
- RRIRLRPPRLPRPRPRPEWIPRP — higher, 0.00477
- RRIRFRPPRLPRPRPRPCTSPRP — within 0.2 log units, -0.0377
- RRIRTRPPRLPRPRPRPGWCPRP — higher, 1.42
- RRIRTRPPRLPRPRPRPDVDPRP — within 0.2 log units, -0.0342
- RRIRERPPRLPRPRPRPCPDPRP — within 0.2 log units, -0.0864
- RRIRLRPPRLPRPRPRPPPHPRP — higher, 1.13
- RRIRSRPPRLPRPRPRPNGQPRP — higher, 0.0535
- RRIRMRPPRLPRPRPRPQCCPRP — higher, 0.00357
- RRIRCRPPRLPRPRPRPFELPRP — within 0.2 log units, -0.0697
- RRIRSRPPRLPRPRPRPHEDPRP — higher, 0.132
- RRIRCRPPRLPRPRPRPESYPRP — within 0.2 log units, -0.336
- RRIRVRPPRLPRPRPRPRDCPRP — higher, 2.64
- RRIRRRPPRLPRPRPRPHIAPRP — within 0.2 log units, -0.0643
- RRIRGRPPRLPRPRPRPAFPPRP — higher, 0.313
- RRIRYRPPRLPRPRPRPMDAPRP — higher, -0.00112
- RRIRCRPPRLPRPRPRPTFWPRP — higher, 0.174
- RRIRTRPPRLPRPRPRPSSSPRP — within 0.2 log units, -0.164
- RRIRVRPPRLPRPRPRPAFPPRP — higher, 0.246
- RRIRLRPPRLPRPRPRPIGCPRP — within 0.2 log units, -0.0407
- RRIRRRPPRLPRPRPRPDVFPRP — higher, 0.06
- RRIRYRPPRLPRPRPRPVSHPRP — higher, -0.00492
- RRIRLRPPRLPRPRPRPQHLPRP — within 0.2 log units, -0.223
- RRIRNRPPRLPRPRPRPGMMPRP — within 0.2 log units, -0.247
- RRIRRRPPRLPRPRPRPSTKPRP — higher, 0.068
- RRIRIRPPRLPRPRPRPTLRPRP — higher, 0.0906
- RRIRCRPPRLPRPRPRPRLDPRP — higher, 0.154
- RRIRNRPPRLPRPRPRPWWHPRP — within 0.2 log units, -0.104
- RRIRPRPPRLPRPRPRPNGYPRP — within 0.2 log units, -0.224
- RRIRDRPPRLPRPRPRPKRWPRP — higher, 0.0314
- RRIRIRPPRLPRPRPRPMKKPRP — higher, 0.0138
- RRIRERPPRLPRPRPRPPGVPRP — higher, 0.232
- RRIRMRPPRLPRPRPRPNPTPRP — higher, 0.849
- RRIRLRPPRLPRPRPRPLGEPRP — higher, 0.013
- RRIRDRPPRLPRPRPRPIVQPRP — within 0.2 log units, -0.267
- RRIRTRPPRLPRPRPRPIHEPRP — within 0.2 log units, -0.259
- RRIRNRPPRLPRPRPRPMFNPRP — lower, -0.868
- RRIRRRPPRLPRPRPRPYFRPRP — within 0.2 log units, -0.203
- RRIRSRPPRLPRPRPRPGVGPRP — higher, 0.617
- RRIRMRPPRLPRPRPRPDSWPRP — higher, 1.59
- RRIRHRPPRLPRPRPRPHMPPRP — within 0.2 log units, -0.358
- RRIRARPPRLPRPRPRPENLPRP — higher, 0.0156
- RRIRARPPRLPRPRPRPWHWPRP — higher, 0.209
- RRIRVRPPRLPRPRPRPKDPPRP — within 0.2 log units, -0.106
- RRIRERPPRLPRPRPRPRYLPRP — lower, -0.452
- RRIRFRPPRLPRPRPRPAFRPRP — higher, 0.132
- RRIRCRPPRLPRPRPRPISIPRP — lower, -0.443
